For assay [1], the target named is 猫泛白细胞减少症病毒1009株 (Feline panleukopenia virus). In words: cell-based or functional assay.
For assay [2] the target is unchanged. In words: indirect immunofluorescence on acetone-fixed F81 cells infected with FPV 1009 strain.

Experimental findings from CN114249819A are described below.

B1: 单克隆抗体3C3 (antibody, V domains shown)
VH: DVKLVESGGGLVNLGGSLKLSCAASGFTFSSYYMSWVRQTPEKRLELVAAINSNGGGTHSPDTVKGRFTISRDNAKNTLYLQMSSLESEDTALYYCARHADDGSFGLNWYFDVWGAGTTVTVSS
VL: DIVMSQSPSSLAVSVGEKVTMSCKSSQSLLYRSNEKNYLAWYQQKPGQSPKLLIYWGSTRESGVPDRFTGSGSGTDFTLTISSVKAEDLAVYYCHQYYRYSYTFGGGTKLEIK
For B1, the HI效价 (reciprocal dilution (printed 1:n)) in assay [1] is 5120. For the same molecule, the IFA效价 (reciprocal dilution (printed 1:n)) in assay [2] came out at 6400.
